The text below walks through data of patent US20210363269A1 (ALX ONCOLOGY, published 2021).

A word on the koff: it is a measure of how fast the partners let go of each other. A low value points to a long-lived complex. A word on the Kd: it is the equilibrium constant for the complex coming apart. A low value points to higher affinity.

Substitutions are numbered along the chain they refer to.

B1: antibody 137 (antibody, V domains shown)
VH: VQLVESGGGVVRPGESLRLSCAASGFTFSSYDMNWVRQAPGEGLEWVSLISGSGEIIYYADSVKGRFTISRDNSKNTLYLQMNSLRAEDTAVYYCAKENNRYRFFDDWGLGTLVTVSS
VL: ETVLTQSPGTLTLSPGERATLTCRASQSVYTYLAWYQEKPGQAPRLLIYGASSRATGIPDRFSGSGSGTVFTLTISSLQSEDFAVYYCQQYYDRPPLTFGGGTKVEIK
notes: also called S137
B2: antibody 174 (antibody, V domains shown)
VH: DVQLVESGGGVVRPGESLRLSCAASGFTFSDHDMSWVRQGPGEGLEWVAGISLRGGVTWYADSVKGRFTISRDNSKNTLYLRLFSLRTEDTAIYYCARESWNTFFDYWGLGTLVTVSS
VL: EIVLTQSPGTLSLSPGETATLSCRASQNVRSNLAWYQQKPGQAPRLLIYDASSRATGIPDRFSGSGSGTDFTLTISSLQSEDFAVYYCQQYGNGPPLTFGGGTKVEIK
notes: also called S174
B3: antibody 149 (antibody, V domains shown)
VH: DVQLVESGGGVVRPGESLRLSCAASGFTFSNFAMNWVRQAPGEGLEWVSLISVTATTYYADSVKGRFTISRDNSKNTLYLQMNSLRAEDTAVYYCAKVTWNNLFDYWGLGTLVTVSS
VL: EIVLTQSPGTLSLSPGERATLSCRASQPIDSYLAWYQQKPGQAPRLLIYNTVTRATGIPDRFSGSGSGTDFTLTINRLEPEDFAVYYCQHQYDWPPYIFGGGTKVEIK
notes: also called S149
B4: antibody 161 (antibody, V domains shown)
VH: B3 VH with N35T, E43K, L45P, I51V, N76S, V98I
VL: EIVLTQSPGTLSLSPGERATLSCRASQTVGSKLAWYQQKPGQAPRLLIYDSSSRASGIPDRFSGSGSGTDFTLTISSLQSEDSAVYYCQQHNDWPPYTFGGGTKVEIK
notes: also called S161
B5: antibody 45 (antibody, V domains shown)
VH: AVTLDESGGGLQTPGGALSLVCKASGFTFSSYAMGWVRQAPGKGLEWVAGIDDDGSTANYGPAVKGRATISRDNGQSTVRLQLNNPRAEDSGTYFCAKASVTGWSAHISGRLDTWGHGTEVIVSS
VL: ALTQPASVSANPGETVKITCSGGGIYYYGWYQQKSPGSAPVTLIYENDKRPSDIPSRFSGSTSGSTNTFTITGVQAEDEAVYYCGGYDSNTTSGIFGAGTTLTVL
notes: also called S45; AB45
B6: antibody 209 (antibody, V domains shown)
VH: DVQLVESGGAVVRPGESLRLSCKASGFTFTNFAMSWVRQAPGEGLEWVSGISGSDDTTYYADSVKGRFTISRDNSESTLYLQMNSLRAEDTAVYYCVKDSTVSWNTFFDYWGLGTLVTVSS
VL: ALTQPASVSANLGGTVKITCSGGYGSDDGSSSYYGWYQQKSPGSAPVILIYWDDKRPSDIPSRFSGSTSGSTTTLTITGVQAEDEAVYFCGTYDTSSGAIFGAGTTLTVL
notes: also called S209
B7: antibody 21 (antibody, V domains shown)
VH: DVQLVESGGGVVRPGESLRLSCAASGFTFSSNAMSWVRQAPGKGLEWLAGISAGGSDTYYPASVKGRFTISRDNSKNTLYLQMNTLTAEDTAVYYCARETWNHLFDYWGLGTLVTVSS
VL: ALTQPASVSANPGETVKIACSGGDYYSYYYGWYQQKAPGSALVTVIYSDDKRPSDIPSRFSGSASGSTATLTITGVRAEDEAVYYCGGYDYSTYANAFGAGTTLTVL
notes: also called AB21; S21
B8: antibody 66 (antibody, V domains shown)
VH: B7 VH with N32Y, P61I, A62D, S75P, T78S, N84S, T85S
VL: ALTQPASVSANPGETVKITCSGGDYYSTYYAWYQQKSPGSAPVTVIHSDDKRPSDIPSRFSGSASGSAATLIITGVRVEDEAVYYCGGYDGRTYINTFGAGTTLTVL
notes: also called AB66; S66
B9: Hum3/AB27_HC_wt (antibody, V domains shown)
VH: DVQLVESGGGVVRPGESLRLSCAVSGFRFSSYAMSWVRQAPGKGLEWVSGISSGGDTYYVDSVKGRFTISRDNSKNTLYLQVNSLTAEDTAIYYCARETWNHLFDYWGLGTLVTVSS
VL: SYELTQPPSVSVSPGQTARITCSGGDYYSTYYAWYQQKPGQAPVTVIHSDDKRPSDIPERFSGSSSGTTVTLTISGVQAEDEADYYCGGYDGRTYINTFGGGTKLTVL
B10: Hum3/AB66_HC_wt (antibody, V domains shown)
VH: B7 VH with N32Y, P61I, A62D, S75P, T78S, N84S, T85S
VL: B9 VL
B11: antibody 27 (antibody, V domains shown)
VH: B9 VH
VL: ALTQPASVSADLGETVKITCSGGDSSSHYYGWYQQKSPGSAPVTVIYSDDERPSDIPSRFSGSASGSTATLTITGVRVEDEAIYYCGAYDGSTYANTFGAGTTLTVL
notes: also called AB27; S27
B12: antibody 25 (antibody, V domains shown)
VH: DVQLVESGGGVVRPGESLRLSCEASGFTFSSNAMSWVRQAPGKGLEWVAGISSGSDTYYGDSVKGRLTISRDNSKNILYLQMNSLTAEDTAVYYCARETWNHLFDYWGLGTLVTVSS
VL: ALTQPASVSANPGETVEITCSGGSYSSYYYAWYQQKSPGSAPVTLIYSDDKRPSNIPSRFSGSASGSTATLTITGVRAEDEAVYFCGGYDQSSYTNPFGAGTTLTVL
notes: also called AB25; S25

T7 sequence (P78324 31-149 limits assumed): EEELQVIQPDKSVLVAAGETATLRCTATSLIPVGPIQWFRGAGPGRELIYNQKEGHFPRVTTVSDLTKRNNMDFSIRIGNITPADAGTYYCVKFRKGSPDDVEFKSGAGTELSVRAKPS
T6 sequence (chain, as listed by the source limits assumed): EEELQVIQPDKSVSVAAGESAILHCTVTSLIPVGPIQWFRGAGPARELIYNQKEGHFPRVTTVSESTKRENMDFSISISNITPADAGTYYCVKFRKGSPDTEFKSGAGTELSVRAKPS

The target in the first assay is T1, human SIRPβ isoform 1 (human, UniProt O00241 30-148).
T1 construct: also called Beta; Human SIRPb
T1 sequence (O00241 30-148 limits assumed): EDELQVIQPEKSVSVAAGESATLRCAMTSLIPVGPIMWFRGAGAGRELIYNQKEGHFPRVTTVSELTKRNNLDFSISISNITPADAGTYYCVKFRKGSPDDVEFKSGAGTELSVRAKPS
As to the kind of experiment: SPR Koff +/-. The method, boiled down:
(§1)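 SIRP analytes at nominal, A280-based concentrations were injected in one-shot kinetic mode over purified antibodies that were amine-coupled to a GLC chip or captured by biotinylated Protein A on an NLC chip of a ProteOn XPR36. All runs were at 25° C in PBS pH 7.4 with 0.01% Tween-20. Apparent ka and kd came from a global simple Langmuir fit of double-referenced data, with KD as their ratio kd/ka.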
For B1, the binding result is “binds”.

For B2, the binding result is on record as “no binding”.

The target in the next assay is T2, mouse 129 SIRP-α (mouse (129 strain), UniProt P97797 32-150).
T2 construct: also called m129
T2 chain: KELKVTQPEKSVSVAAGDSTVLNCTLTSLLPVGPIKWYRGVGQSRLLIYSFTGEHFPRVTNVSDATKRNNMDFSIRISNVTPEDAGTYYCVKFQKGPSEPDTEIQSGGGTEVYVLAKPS
As to the kind of experiment: SPR Koff +/-. The method, boiled down:
as §1
For B1, the binding result is “binds”.

For the molecule B2, the binding result is recorded as “no binding”.

Turning to B3, the binding result was “no binding”.

For B4, the binding result is listed as “no binding”.

The target in a further assay is T3, cynomolgus SIRP-α (cynomolgus monkey, UniProt Q5TFQ8 30-148 (human entry), limits assumed).
T3 construct: also called cyno1
T3 chain: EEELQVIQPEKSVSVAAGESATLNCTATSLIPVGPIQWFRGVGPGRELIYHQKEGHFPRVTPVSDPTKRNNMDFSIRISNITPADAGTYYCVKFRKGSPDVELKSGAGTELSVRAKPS
As to the kind of experiment: SPR Koff +/-. In outline:
as §1
As for B1, the binding result is given as “binds”.

Take B5: the binding result is on record as “no binding”.

Take B2: the binding result is “no binding”.

As to B6, the binding result is reported as “no binding”.

The target of the next assay is T4, human SIRPγ isoform 1 (human, UniProt Q9P1W8 29-147).
T4 construct: also called Gamma; Human SIRPg
T4 sequence (Q9P1W8 29-147 limits assumed): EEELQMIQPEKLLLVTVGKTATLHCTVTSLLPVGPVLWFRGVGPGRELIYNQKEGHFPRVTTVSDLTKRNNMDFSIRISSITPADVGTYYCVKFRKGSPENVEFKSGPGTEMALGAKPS
Description: SPR Koff +/-. The method, boiled down:
as §1
As to B2, the binding result is on record as “no binding”.

Take B6: the binding result is on record as “no binding”.

For B3, the binding result is listed as “no binding”.

B4: the binding result is on record as “no binding”.

In another assay the target is T5, BALBc mouse SIRP-α (mouse (BALB/c strain)).
T5 chain: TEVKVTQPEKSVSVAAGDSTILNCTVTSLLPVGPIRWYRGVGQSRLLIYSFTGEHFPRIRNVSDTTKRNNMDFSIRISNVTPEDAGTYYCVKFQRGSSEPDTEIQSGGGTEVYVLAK
Description: SPR. In outline: as §1
On the technique in general: Surface plasmon resonance follows binding to a sensor surface in real time, without labels.
B7 gave a koff of 0.00241 s⁻¹.

In the case of B8, the koff came out at 0.00346 s⁻¹.

B9: the koff stood at 0.000202 s⁻¹.

B10: the koff stood at 0.00205 s⁻¹. Against the preceding molecule, the koff is about 10-fold higher.

The molecule B11 gave a koff of 0.005 s⁻¹.

In the case of B12, the off-rate constant (koff) stood at 0.00178 s⁻¹.

A further assay addresses T6, human SIRP-α v2 (human).
T6 construct: also called Human v2; Human V2
Description: SPR. In outline: as §1
For B7, the koff was 0.00192 s⁻¹.

B8 came in with a koff of 0.00281 s⁻¹.

Consider B9, for which the koff is 0.000396 s⁻¹.

In turn, B10 showed a koff of 0.000287 s⁻¹.

B11 returned a koff of 0.000579 s⁻¹.

Molecule B12 registered a koff of 0.000353 s⁻¹.

The next assay has as its target T7, human SIRP-α v1 (human, UniProt P78324 31-149).
T7 construct: also called Human v1; Human V1
As to the kind of experiment: SPR. In outline:
as §1
Turning to B7, the koff was found to be 0.000707 s⁻¹.

Consider B8, for which the koff amounted to 0.000949 s⁻¹.

Molecule B9 gave a koff of 0.000216 s⁻¹.

In turn, B10 displayed a koff of 0.000124 s⁻¹.

Take B11: the koff stood at 0.000315 s⁻¹.

B12 registered a koff of 0.000165 s⁻¹.

The target in another assay is T3, cynomolgus SIRP-α. Description: SPR. The method, boiled down: as §1
On to B7, for which the koff amounted to 0.00229 s⁻¹.

B8: the koff turned out to be 0.00269 s⁻¹.

B9 returned a koff of 0.000464 s⁻¹.

B10: the koff is 0.000306 s⁻¹. This koff is about 1.5-fold lower than that of the molecule before.

In the case of B11, the koff was 0.000683 s⁻¹.

The molecule B12 registered a koff of 0.000394 s⁻¹.

A further assay addresses T4, human SIRPγ isoform 1. Description: SPR. In outline: as §1
Take B7: the koff was 0.000902 s⁻¹.

Regarding B8, the koff worked out at 0.000997 s⁻¹.

On to B9, for which the koff amounted to 0.000207 s⁻¹.

For the molecule B10, the koff is 0.000135 s⁻¹.

The molecule B11 had a koff of 0.000407 s⁻¹. Against the preceding molecule, the koff is about 3-fold higher.

B12 yielded a koff of 0.000203 s⁻¹.

The target of the next assay is T6, human SIRP-α v2. As to the kind of experiment: SPR. This is another data set of the same source. In outline: as §1
B7: the Kd is < 0.001 nM.

As to B1, binding was characterised by a dissociation constant (Kd) of 3.14 nM.

As to B12, the Kd is < 0.001 nM.

B6 gave a Kd of 5.01 nM. This lies in the single-digit nanomolar range.

Molecule B3 came in with a Kd of 0.238 nM.

Consider B4, for which binding was put at a Kd of 0.127 nM.

Another assay addresses T7, human SIRP-α v1. As to the kind of experiment: SPR. The source holds these as a separate data set. In outline:
as §1
As to B7, the Kd is < 0.001 nM.

Consider B8, for which the Kd is < 0.001 nM.

B11: the Kd was 0.0215 nM.

In turn, B1 registered a Kd of 0.774 nM.

For B12, the Kd is < 0.001 nM.

B6 returned a Kd of 0.171 nM.

As to B3, binding was characterised by a dissociation constant (Kd) of 0.873 nM.

Consider B4, for which the Kd was determined as 1.03 nM. This Kd and that of the molecule before are within 1.5-fold of each other.
